Patent US9029340

Target: prostate-specific membrane antigen (PSMA) (human) (UniProt Q04609)
Test: flow cytometry; J591 (1:5000) plus Alexa488 secondary on PC3-PIP cells, PSMA-negative PC3-Flu cells as reference

Sequence of UniProt Q04609 (Q04609 whole entry): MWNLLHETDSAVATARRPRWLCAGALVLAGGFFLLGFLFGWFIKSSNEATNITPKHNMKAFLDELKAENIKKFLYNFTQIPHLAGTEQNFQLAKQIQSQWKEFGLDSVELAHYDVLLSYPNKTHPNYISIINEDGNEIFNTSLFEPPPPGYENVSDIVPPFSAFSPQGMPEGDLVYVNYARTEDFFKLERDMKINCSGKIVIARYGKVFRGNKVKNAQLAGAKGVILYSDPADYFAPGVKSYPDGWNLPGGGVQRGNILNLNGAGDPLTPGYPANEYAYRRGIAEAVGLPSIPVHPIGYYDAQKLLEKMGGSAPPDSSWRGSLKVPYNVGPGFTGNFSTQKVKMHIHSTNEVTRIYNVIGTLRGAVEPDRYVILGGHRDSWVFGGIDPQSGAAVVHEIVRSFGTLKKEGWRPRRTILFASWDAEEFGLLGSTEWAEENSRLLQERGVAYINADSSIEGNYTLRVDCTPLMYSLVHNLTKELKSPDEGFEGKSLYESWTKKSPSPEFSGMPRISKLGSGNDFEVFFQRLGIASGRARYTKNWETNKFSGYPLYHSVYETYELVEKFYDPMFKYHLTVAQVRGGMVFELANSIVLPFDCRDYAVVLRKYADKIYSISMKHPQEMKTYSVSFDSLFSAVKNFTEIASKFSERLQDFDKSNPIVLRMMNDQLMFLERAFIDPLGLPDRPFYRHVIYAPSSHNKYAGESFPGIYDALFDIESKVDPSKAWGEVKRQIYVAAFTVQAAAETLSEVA

anti-PSMA (J591) antibody
percent of cells stained positive: 48.2%
